# In the DeepSol protein solubility set:
# Assay: soluble on expression in E. coli; label from the status in PepcDB or PDB records
row,Sequence,soluble on expression in E. coli
1,MENSDDIRLIVKIAQLYYEQDMTQAQIARELGIYRTTISRLLKRGRDQGMVTIAINYDYNENLWLEQQLKQKFGLKDVVVVSGNDEDEETQLAMMGLHGAQLLDRLLEPGDIVGFSWGRAVSALVENLPQAGQSRQLICVPIIGGPSGKLESRYHVNTLTYSAAAKLKGESHLADFPALLDNPLIRNGIMQSQHFKTISAYWDNLDIALVGIGSPAIRDGANWHAFYGGEESDDLNARQVAGDICSRFFDIHGAMVETNMSEKTLSIEMNKLKQARYSIGIAMSEEKYSGIIGALRGKYINCLVTNSSTAELLLK,soluble
2,MSLLRQRFVFDTTALTDSQAWESEGCTTLCEGMSAILHRVAQARLHLGISCYVPYPSVYNEIRDFVRNNNCDIAILGKIDTWLVKKTPDRYRVKIPSKIFYEYVDYMRSRINKGMNVSEEAIWEAVSRCLSISATGEGREQMREEIEREVVGSIIRKFREKYRAALRYGILDSAPDIDVLLLAKDLDAAVVSQDLGIQRWAEQLGLRFMEARAFPQMVREYMSFVPLHTEELEDRMVEGHHHHHH,soluble
3,MQLDRVDRKILNELYNDSRLSMRELAKRVNLSAPSTSERVRKLESEGVIQKYTIDIDYKKAGLVLDCILEITLKNGDTTRMQQFIQSYPSASFCYRVTGSLCYIVKISVPSLVELEEFINDVSSYATTVSHIVLSEVSLTPDIEHIFPED,not soluble
4,MGSDKIHHHHHHMKRKTKLDKKSKWVLDMKFGVSSLVFLPESLTSSMEKIAEHNFDAWEIVCEGTHYLSPKNIKYLMELRDRYEVEIVVHAPFSDLNPASMNERVRKLTVECIRDAIEGAFELDSEVVVVHPGYIPELWSNYVSEILDNNFSTLSEIVEIAEDYGIKIGLENMPNFRGVLGITPESLLEIVKDIDSKNLGITFDIGHANTAGNPAEFVEKLQNIGIGIIHVHAHDNNGYDDEHLKIGEGNINFIEVLEKLKEIGYDGVISIENKNIRDAVKSKEILKEYLEIVNEKVAEKEKIEE,not soluble
5,MGSDKIHHHHHHMDVIDAVNRRMSVRAFKPDPVDAGLIRDLLEAAARAPSGGNLQPWRVQVVGGAPLEALKAAMLQRVASPDPTEYDVYPANLWEPLRSRRFQVGEDMYGALGIPREDKLQRLQWFANNGQGFGAPVQLFFSIDRRCGPPQWSDVGMLMQTFMLLAVERGLDTCPQEFWSHYNKLVDEHVGLPEGHMLFSGMALGYRDADAPVNNFRSRRAPFEEWAELKGF,not soluble
6,SPAAVASALEGCREPVPGIRCRDAFSAASGIIDKMACVPELAVSEISAPRIVSSLAGDGHALFVANSMPARDMDLYAAPVAQKPLQVALNRGVSGIDGIISTAAGFSAGLGKPTTLLIGDISFLHDLNALCLLNHPWNPLIVIVLNNHGGSIFSFLPIASQTDRLDECFATPQNFSIESAARTFGIDYACPETNGDFTQLYAEALTTKKSLIIEIRSDREKNLLLHRSLKARLDPVFEKADC,not soluble
7,MSLTLPELFTSVFSHFKGQPDKAPIARKINGAYSPISYDSLAEDCRHFAAYLKERGIEPGDRVAILSENRPGWYLADIAILSLGATDVPLYPSLPPNQIEYILNNCSAKGIIVSNMLQLGKILSIWPKLPELNMVIVMNKLDEPVEDVIDLSQAKTEGKKVLEAKPWLLDGIKSNPDDVATLIYTSGTTGLPKGVMLTHRNICENVKSCSTVIRIDQTDSSLSFLPLSHAYERTGGYYLMFACGARINLAESVETISLNISEAKPTIIFTVPRLFDRMKASILKSVTSEGGVKEKIFFWAVSTGEKYHKQLATGKVSPLLAVQHNLADKLVYSKIRKKFGGKLRYFVSGGAALPQKTGEFFQSIGITILEGFGLTETSPVTNVNRPEKVKFGTVGLPVKNVEVKIAPDGEIMLKGPNIMKGYWKDEAASAEVLRDGWLYTGDIGEVDSEGYLKITDRKKHIIVTSGGKNIAPLQIENLILDSPYVDQAMIVGEKRPFLIALIVPDFLKLRDFAAEHQIKASSTKELINTKEVIEVYEKLLKSISRQLATHEKVRKFLLLEEPFSIENGMMTPTLKLKRKEITTKFSAEIDNLYNTLNMVYNTEGHHHHHH,not soluble
8,MDWSEERTATLKKLWLEGLSASQVARQLGGVSRSAVIGKVHRLGITVRETPVRQRATTARAPSRISVRQRPSRDVATPRVAPRYERIEEDLLPTSGILGLGAHSCRWPIGHPENDDFGFCGRPKASARGSYCEQHSQGAFRRLSGGQALEAWALKGVKEKRIQPRLVLEHHHHHH,not soluble
9,MAHHHHHHMQSQQHHYTASPTASPALSRAGVSSTPVLILDLGSRTIKSGLHTATTPHLTPALVGTPKYPRCLPQVSSSFNQSSSISTSCFVVGSDAASRRGVLRLSRPIQHGGVIMDWVGTRPLLRQSIQNALVPPSSSLAVRQPLEEGEDVIYSLVESPYASRPQRARLAELLFEGPDQEAVMSDSGKQQRVGPRAAGVFCGVGPLLALYATGQTTGVVVDVGDGAVSTAAAADGYVLPQCLQREADGATGAAVTSYLTRLLYQSGVLGPAAATAAFRRSAPPSLLGSATNHLSSGAGAGTQQERELVYALKEACCSVSATPLFSTKSSLAAADASTAATPSLAELNSALIAAAQRTQHSGPGGSGAAHASTPFSHPFTLPDGSFLEVGGAEAAQASEVLFYPALMGSEGRGVVDVVLDAVAAAPAELQPQLLGNVVVTGGVTCSAGFGYRFFNEMQQRIRGCAASSTNGSSNQRICVSAPEQRAYAAWMGASYVAQISSFASSMVVTRAAYEEEGEAALARRVLT,not soluble
10,MTKKIIGIAGNQLLQAAEVFHGNQVTYTPQGFVSAVQAAGGVPLVLPIGPKELAATYIQQIDKLLLAGGQDVAPEFYGQEPHIKLEETNRDRDEFELALIEEALKQNKPIFAVCRGMQLVNVALGGTLYQDLSMYPQWSVKHGQQPTQPIFATHRIDVEPDSQLSNIYGTTGQVNSYHHQALHTLGKDLRVTAWSSDGLAEAVESTNEQQPLLAVQWHPELMYARDAKSQALFNYFVQKL,not soluble
11,MSLDLISFSVPGNLLLMGEYTILEEKGLGLAIAINKRAFFSFKKSDSWRFFSKKKKIDDFSLIENRSDFVFKMFAYLSQNCFFNLENFAYDVYIDTSNFFFNDGTKKGFGSSAVVAIGIVCGLFLIHNATNVVEKGEIFKYCLEAYRYSQGGIGSGYDIATSIFGGVIEFEGGFNPKCRQLGAVEFNDFYLMQGLQAIKTTTSICEYNKHRNSILDFILKCNLEMKKLVLNASNSKSALISSLRRAKELGLAIGEAIGVSAALPSSFDHLLGQCDLIKALGAGNETFLVYRPNIEAFNLSKIISIVLENEGIKFESDKEGHHHHHH,not soluble
12,MSLPILTIREVCNINHWGIGYYDVDDSGEIIVRPNPSQHNQTVSLQKLTEAVQQKHQARLPVLFCFPQILEHRLRDINRAFQTAREECGYKGGYCLVYPIKVNQHRRVIESLMSSGQPHGLEAGSKAELMAVLAHAGNRQTLIVCNGYKDREYIRFALMGEKLGHQVYLVIEKLSEIQMVLEEAEKLGIKPRLGVRARLASQGSGKWQSSGGEKSKFGLSASQVLQLVDILKQKNRLDCLQLLHFHLGSQLGNIRDVATGVHESARFYVELHKLGVNIRCFDVGGGLGVDYEGNRTQSDCSVNYSLNEYAATVVWGISQACLEHGLPHPTIITESGRGITAHHAVLVANVIGVERYKPRRLDAPSPEAPRVLHSMWETWTDISASREKRSLRSWIHEGQFDLADVHNQYNVGLLSLAQRAWAEQLYLNICHEVGELFNEKHRSHRTIIDELQERFADKLYVNFSLFQSLPDAWGIDQLFPVCPITGLNEPIARRAVLLDITCDSDGTIDHYIDGDGIAGTMPMPDYPEEEPPLLGFFMVGAYQEILGNMHNLFGDTATADVVVGEDGQFTVIDYDEGNTVADMLEYVYQDPKELMKRYREQIEHSDLPASQAMSFLKELEAGLNGYTYLEDEEGHHHHHH,soluble
